From paper PMC12184107 (Cell Cycle, 2024)

Legend:
[1] = target: T1, recombinant human LGR5 (leucine-rich repeat-containing G-protein-coupled receptor 5) (human) (UniProt O75473); test: ELISA
T1 sequence (O75473 whole entry, looked up): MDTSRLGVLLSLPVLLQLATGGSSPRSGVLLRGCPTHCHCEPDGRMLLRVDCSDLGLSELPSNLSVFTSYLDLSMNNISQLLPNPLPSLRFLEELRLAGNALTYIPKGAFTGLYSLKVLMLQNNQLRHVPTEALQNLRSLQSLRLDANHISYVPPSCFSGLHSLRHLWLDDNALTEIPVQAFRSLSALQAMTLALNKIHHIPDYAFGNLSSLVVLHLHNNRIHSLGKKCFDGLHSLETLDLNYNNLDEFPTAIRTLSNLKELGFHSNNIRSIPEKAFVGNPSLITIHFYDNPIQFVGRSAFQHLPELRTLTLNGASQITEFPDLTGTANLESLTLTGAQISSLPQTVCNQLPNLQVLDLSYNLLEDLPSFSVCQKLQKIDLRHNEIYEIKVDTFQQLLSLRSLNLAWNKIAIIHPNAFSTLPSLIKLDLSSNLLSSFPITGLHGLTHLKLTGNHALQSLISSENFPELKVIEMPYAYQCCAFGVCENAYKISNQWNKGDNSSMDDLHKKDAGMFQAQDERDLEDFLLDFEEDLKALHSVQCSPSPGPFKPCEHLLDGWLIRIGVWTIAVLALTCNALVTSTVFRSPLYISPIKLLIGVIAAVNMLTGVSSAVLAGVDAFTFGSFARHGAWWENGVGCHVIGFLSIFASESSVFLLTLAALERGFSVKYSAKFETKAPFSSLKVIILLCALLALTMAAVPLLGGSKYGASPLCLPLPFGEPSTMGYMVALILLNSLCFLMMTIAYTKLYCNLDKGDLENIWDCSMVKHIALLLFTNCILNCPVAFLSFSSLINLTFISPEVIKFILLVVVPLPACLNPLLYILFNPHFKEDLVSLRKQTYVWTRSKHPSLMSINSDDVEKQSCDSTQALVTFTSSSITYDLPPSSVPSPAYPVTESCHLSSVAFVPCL

LGR5 = conditions: gastric cancer, phage display; cited from earlier work

Substance | EC50 [1] | LGR5 binding (LGR5)
recombinant human R-spondin 1 (from UniProt Q2MKA7 21-263) (ligand) | 0.04 nM | –
IPQILSI | – | possessed LGR5 binding capabilities
